Reference: the RNAGym collection of RNA variant scans (doi:10.1021/acssynbio.7b00057)

B1: Pistol ribozyme (parent)
chain: GGGUCGUUGUUCCAUAAUCGCGUGGAUAUGGCACGCAAGUUUCUACCGGGCACCGUAAAUGUCCGACUGGAGCCGUUCGGGCGGCUAUAAACAGACCUCAGGCCCGAAGCGUGGCGGCACCUGCCGCCGGUGGUAAAAAAGAUCGGAAGAGCACACGUCU

Variants of: B1
Experiment: aptazyme ON/OFF ratio, guanine; higher = stronger switching; co-transcriptional cleavage with and without guanine

First: GGGUCGGAAUCGAAUAAUCGCGUGGAUAUGGCACGCAAGUUUCUACCGGGCACCGUAAAUGUCCGACUGGAGCCGUUCGGGCGGCUAUAAACAGACCUCAGGCCCGAAGCGUGGCGGCACCUGCCGCCGGUGGUAAAAAAGAUCGGAAGAGCACACGUCU [U7G U8A G9A U11C C12G C13A]
Second: GGGUCGGAAUCGUAUAAUCGCGUGGAUAUGGCACGCAAGUUUCUACCGGGCACCGUAAAUGUCCGACUGGAGCCGUUCGGGCGGCUAUAAACAGACCUCAGGCCCGAAGCGUGGCGGCACCUGCCGCCGGUGGUAAAAAAGAUCGGAAGAGCACACGUCU [U7G U8A G9A U11C C12G C13U]
The “aptazyme ON/OFF ratio” value of the first is lower: 1.08 for the first, 1.1 for the second.

Compared with GGGUCGGAAUAGCAUAAUCGCGUGGAUAUGGCACGCAAGUUUCUACCGGGCACCGUAAAUGUCCGACUGGAGCCGUUCGGGCGGCUAUAAACAGACCUCAGGCCCGAAGCGUGGCGGCACCUGCCGCCGGUGGUAAAAAAGAUCGGAAGAGCACACGUCU [U7G U8A G9A U11A C12G], GGGUCGGAAUAACAUAAUCGCGUGGAUAUGGCACGCAAGUUUCUACCGGGCACCGUAAAUGUCCGACUGGAGCCGUUCGGGCGGCUAUAAACAGACCUCAGGCCCGAAGCGUGGCGGCACCUGCCGCCGGUGGUAAAAAAGAUCGGAAGAGCACACGUCU [U7G U8A G9A U11A C12A] is higher in “aptazyme ON/OFF ratio” value: 1.24 for the first, 1.27 for the second.

Compared with GGGUCGGAAUAUCAUAAUCGCGUGGAUAUGGCACGCAAGUUUCUACCGGGCACCGUAAAUGUCCGACUGGAGCCGUUCGGGCGGCUAUAAACAGACCUCAGGCCCGAAGCGUGGCGGCACCUGCCGCCGGUGGUAAAAAAGAUCGGAAGAGCACACGUCU [U7G U8A G9A U11A C12U], GGGUCGGAAUACUAUAAUCGCGUGGAUAUGGCACGCAAGUUUCUACCGGGCACCGUAAAUGUCCGACUGGAGCCGUUCGGGCGGCUAUAAACAGACCUCAGGCCCGAAGCGUGGCGGCACCUGCCGCCGGUGGUAAAAAAGAUCGGAAGAGCACACGUCU [U7G U8A G9A U11A C13U] is lower in “aptazyme ON/OFF ratio” value: 1.25 for the first, 1.12 for the second.

First: GGGUCGGAAUACGAUAAUCGCGUGGAUAUGGCACGCAAGUUUCUACCGGGCACCGUAAAUGUCCGACUGGAGCCGUUCGGGCGGCUAUAAACAGACCUCAGGCCCGAAGCGUGGCGGCACCUGCCGCCGGUGGUAAAAAAGAUCGGAAGAGCACACGUCU [U7G U8A G9A U11A C13G]
Second: GGGUCGGAAUACAAUAAUCGCGUGGAUAUGGCACGCAAGUUUCUACCGGGCACCGUAAAUGUCCGACUGGAGCCGUUCGGGCGGCUAUAAACAGACCUCAGGCCCGAAGCGUGGCGGCACCUGCCGCCGGUGGUAAAAAAGAUCGGAAGAGCACACGUCU [U7G U8A G9A U11A C13A]
The “aptazyme ON/OFF ratio” value of the first is lower: 1.02 for the first, 1.06 for the second.

GGGUCGGAAGGUUAUAAUCGCGUGGAUAUGGCACGCAAGUUUCUACCGGGCACCGUAAAUGUCCGACUGGAGCCGUUCGGGCGGCUAUAAACAGACCUCAGGCCCGAAGCGUGGCGGCACCUGCCGCCGGUGGUAAAAAAGAUCGGAAGAGCACACGUCU [U7G U8A G9A U10G U11G C12U C13U] and GGGUCGGAAUCACAUAAUCGCGUGGAUAUGGCACGCAAGUUUCUACCGGGCACCGUAAAUGUCCGACUGGAGCCGUUCGGGCGGCUAUAAACAGACCUCAGGCCCGAAGCGUGGCGGCACCUGCCGCCGGUGGUAAAAAAGAUCGGAAGAGCACACGUCU [U7G U8A G9A U11C C12A] are the same in “aptazyme ON/OFF ratio” value: 1.17 for the first, 1.17 for the second.

First: GGGUCGGAAUCGCAUAAUCGCGUGGAUAUGGCACGCAAGUUUCUACCGGGCACCGUAAAUGUCCGACUGGAGCCGUUCGGGCGGCUAUAAACAGACCUCAGGCCCGAAGCGUGGCGGCACCUGCCGCCGGUGGUAAAAAAGAUCGGAAGAGCACACGUCU [U7G U8A G9A U11C C12G]
Second: GGGUCGGAAUCUCAUAAUCGCGUGGAUAUGGCACGCAAGUUUCUACCGGGCACCGUAAAUGUCCGACUGGAGCCGUUCGGGCGGCUAUAAACAGACCUCAGGCCCGAAGCGUGGCGGCACCUGCCGCCGGUGGUAAAAAAGAUCGGAAGAGCACACGUCU [U7G U8A G9A U11C C12U]
The “aptazyme ON/OFF ratio” value of the first is higher: 1.21 for the first, 1.18 for the second.

Compared with GGGUCGGAAUAUGAUAAUCGCGUGGAUAUGGCACGCAAGUUUCUACCGGGCACCGUAAAUGUCCGACUGGAGCCGUUCGGGCGGCUAUAAACAGACCUCAGGCCCGAAGCGUGGCGGCACCUGCCGCCGGUGGUAAAAAAGAUCGGAAGAGCACACGUCU [U7G U8A G9A U11A C12U C13G], GGGUCGGAAUAUAAUAAUCGCGUGGAUAUGGCACGCAAGUUUCUACCGGGCACCGUAAAUGUCCGACUGGAGCCGUUCGGGCGGCUAUAAACAGACCUCAGGCCCGAAGCGUGGCGGCACCUGCCGCCGGUGGUAAAAAAGAUCGGAAGAGCACACGUCU [U7G U8A G9A U11A C12U C13A] is higher in “aptazyme ON/OFF ratio” value: 1.04 for the first, 1.17 for the second.

Compared with GGGUCGGAAUAUUAUAAUCGCGUGGAUAUGGCACGCAAGUUUCUACCGGGCACCGUAAAUGUCCGACUGGAGCCGUUCGGGCGGCUAUAAACAGACCUCAGGCCCGAAGCGUGGCGGCACCUGCCGCCGGUGGUAAAAAAGAUCGGAAGAGCACACGUCU [U7G U8A G9A U11A C12U C13U], GGGUCGGAAUAGUAUAAUCGCGUGGAUAUGGCACGCAAGUUUCUACCGGGCACCGUAAAUGUCCGACUGGAGCCGUUCGGGCGGCUAUAAACAGACCUCAGGCCCGAAGCGUGGCGGCACCUGCCGCCGGUGGUAAAAAAGAUCGGAAGAGCACACGUCU [U7G U8A G9A U11A C12G C13U] is higher in “aptazyme ON/OFF ratio” value: 1.06 for the first, 1.14 for the second.

Going from GGGUCGGAAUAGGAUAAUCGCGUGGAUAUGGCACGCAAGUUUCUACCGGGCACCGUAAAUGUCCGACUGGAGCCGUUCGGGCGGCUAUAAACAGACCUCAGGCCCGAAGCGUGGCGGCACCUGCCGCCGGUGGUAAAAAAGAUCGGAAGAGCACACGUCU [U7G U8A G9A U11A C12G C13G] to GGGUCGGAAUAGAAUAAUCGCGUGGAUAUGGCACGCAAGUUUCUACCGGGCACCGUAAAUGUCCGACUGGAGCCGUUCGGGCGGCUAUAAACAGACCUCAGGCCCGAAGCGUGGCGGCACCUGCCGCCGGUGGUAAAAAAGAUCGGAAGAGCACACGUCU [U7G U8A G9A U11A C12G C13A], the “aptazyme ON/OFF ratio” value rises from 1.09 to 1.17.
